For the data set, the target named is alpha-synuclein (UniProt P37840 1-140). Nature of the data set: electrochemical current sensor.

In the case of GCCTGTGTTGGGGCGGGTGCG (ssDNA, 5'-SH (thiol)) [Abeta aptamer (Tsukakoshi et al)], the binding result is recorded as “no binding”.

(Values after publication PMC7989959.)
